Source: article PMC6555819, “Comprehensive study of nuclear receptor DNA binding provides a revised framework for understanding receptor specificity”
Substitutions are numbered along the chain they refer to.

B1: NRC3_wobSeed31_DR1_A13C_o1 (dsDNA)
DNA 1: GCTCATATAGGTCAAAGGTGAAAGTCGGTGTGGTAAGCGATTGACAGCGTAGAATGAAGG
DNA 2: CCTTCATTCTACGCTGTCAATCGCTTACCACACCGACTTTCACCTTTGACCTATATGAGC
B2: NRC3_wobSeed31_DR1_G20C_o1 (dsDNA)
DNA 1: B1 DNA 1 with C13A, G20C
DNA 2: B1 DNA 2 with C41G, G48T
B3: NRC3_wobSeed32_DR1_A11G_o1 (dsDNA)
DNA 1: GCTCTTGTAGGTCAAAGGTTAAGAAAGCCGAAGCCTGCGATTGACAGCGTAGAATGAAGG
DNA 2: CCTTCATTCTACGCTGTCAATCGCAGGCTTCGGCTTTCTTAACCTTTGACCTACAAGAGC
B4: NRC3_wobSeed46_DR1_G21A_o1 (dsDNA)
DNA 1: GCTTACCAAGGTGAAAGGTCATTGATGCACGCCTTGGCGATTGACAGCGTAGAATGAAGG
DNA 2: CCTTCATTCTACGCTGTCAATCGCCAAGGCGTGCATCAATGACCTTTCACCTTGGTAAGC
B5: NRC3_wobSeed114_DR4_A8G_o1 (dsDNA)
DNA 1: GCAATACGGGGTCATCGTAGGCCAGAGTACGCACAGGCGATTGACAGCGTAGAATGAAGG
DNA 2: CCTTCATTCTACGCTGTCAATCGCCTGTGCGTACTCTGGCCTACGATGACCCCGTATTGC
B6: NRC3_wobSeed29_DR1_C8G_o1 (dsDNA)
DNA 1: GCGCTTAGGGGTCAAAGGTTATAGCATGAATAGAATGCGATTGACAGCGTAGAATGAAGG
DNA 2: CCTTCATTCTACGCTGTCAATCGCATTCTATTCATGCTATAACCTTTGACCCCTAAGCGC
B7: NRC3_wobSeed138_DR5_C23T_o1 (dsDNA)
DNA 1: GCGATACAGGGTCAGCTAGAGGTCAGAGTATGGAAAGCGATTGACAGCGTAGAATGAAGG
DNA 2: CCTTCATTCTACGCTGTCAATCGCTTTCCATACTCTGACCTCTAGCTGACCCTGTATCGC
B8: NRC3_wobSeed38_DR1_T16G_o1 (dsDNA)
DNA 1: GCCCTGCTAGGTCAAGGGTCAGCTAAAGCAGCTCGCGCGATTGACAGCGTAGAATGAAGG
DNA 2: CCTTCATTCTACGCTGTCAATCGCGCGAGCTGCTTTAGCTGACCCTTGACCTAGCAGGGC
B9: NRC3_wobSeed28_DR1_C7G_o1 (dsDNA)
DNA 1: GCCCTAGTGGGCCAAAGGTCATTGATTCCAATGCTCGCGATTGACAGCGTAGAATGAAGG
DNA 2: CCTTCATTCTACGCTGTCAATCGCGAGCATTGGAATCAATGACCTTTGGCCCACTAGGGC

Each binder was assayed against RXRa (Homo sapiens, UniProt P19793) (assay: no ligand; PBM; 180 nM; PBS pH 7.4, 2% milk, 0.02% Triton X-100, 1 mM DTT, BSA, 0.4 mg/ml salmon testes DNA). Conditions: tags: His cleaved; chain copies: 2; label: surface-attached array probe.
Sequence of RXRa (P19793 whole entry): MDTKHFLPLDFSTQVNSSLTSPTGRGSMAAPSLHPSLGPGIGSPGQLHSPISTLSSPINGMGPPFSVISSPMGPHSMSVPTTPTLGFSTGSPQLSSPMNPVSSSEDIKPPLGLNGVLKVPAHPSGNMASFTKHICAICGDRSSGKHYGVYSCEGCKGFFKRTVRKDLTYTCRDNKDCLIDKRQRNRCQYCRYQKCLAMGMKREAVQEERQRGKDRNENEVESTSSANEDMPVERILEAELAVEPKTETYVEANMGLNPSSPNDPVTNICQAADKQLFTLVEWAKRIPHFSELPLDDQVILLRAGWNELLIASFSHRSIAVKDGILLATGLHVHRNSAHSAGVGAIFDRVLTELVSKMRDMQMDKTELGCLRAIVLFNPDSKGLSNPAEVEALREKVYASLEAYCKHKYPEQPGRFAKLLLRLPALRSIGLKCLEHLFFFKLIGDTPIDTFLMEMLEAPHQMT

Binder	binding signal
B1	8.68 PBM z-score against 500 random probes
B2	8.7 PBM z-score against 500 random probes
B3	9.29 PBM z-score against 500 random probes
B4	8.42 PBM z-score against 500 random probes
B5	9.29 PBM z-score against 500 random probes
B6	10.6 PBM z-score against 500 random probes

What follows are binders tested against PPARg:RXRa (Homo sapiens, UniProt P37231;P19793 full;full) (assay: no ligand; PBM; 180 nM : 90 nM RXRa; PBS pH 7.4, 2% milk, 0.02% Triton X-100, 1 mM DTT, BSA, 0.4 mg/ml salmon testes DNA). Conditions: tags: His kept;His cleaved; copies: 1;1; label: surface-attached array probe.
Sequence of PPARg:RXRa (P37231 29-505, chain 1 of 2): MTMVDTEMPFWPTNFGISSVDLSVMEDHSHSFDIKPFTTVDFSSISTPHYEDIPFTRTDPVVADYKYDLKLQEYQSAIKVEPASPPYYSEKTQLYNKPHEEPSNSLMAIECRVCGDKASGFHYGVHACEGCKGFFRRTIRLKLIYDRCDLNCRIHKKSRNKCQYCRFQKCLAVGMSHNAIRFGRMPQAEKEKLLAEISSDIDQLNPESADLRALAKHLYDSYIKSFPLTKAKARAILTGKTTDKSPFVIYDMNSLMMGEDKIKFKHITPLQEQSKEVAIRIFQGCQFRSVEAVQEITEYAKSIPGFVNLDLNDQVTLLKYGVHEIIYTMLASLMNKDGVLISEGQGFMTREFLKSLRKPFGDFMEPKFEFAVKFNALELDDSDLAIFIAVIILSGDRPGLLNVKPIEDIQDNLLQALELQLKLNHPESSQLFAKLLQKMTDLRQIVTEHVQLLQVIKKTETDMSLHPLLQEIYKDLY
Sequence of PPARg:RXRa (P19793 whole entry, chain 2 of 2): as the sequence (P19793 whole entry) above

Binder	binding signal
B7	5.41 PBM z-score against 500 random probes
B1	11.9 PBM z-score against 500 random probes
B2	11.8 PBM z-score against 500 random probes
B3	12.7 PBM z-score against 500 random probes
B4	10.9 PBM z-score against 500 random probes
B8	10.5 PBM z-score against 500 random probes
B9	13.1 PBM z-score against 500 random probes

What follows are binders tested against RARb:RXRa (Homo sapiens, UniProt P10826;P19793 full;full) (assay: no ligand; PBM; 270 nM : 90 nM RXRa; PBS pH 7.4, 2% milk, 0.02% Triton X-100, 1 mM DTT, BSA, 0.4 mg/ml salmon testes DNA). Conditions: tags: His kept;His cleaved; copies: 1;1; label: surface-attached array probe.
In short: (§1)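 The probes on custom Agilent 4×180K protein-binding microarrays were double-stranded, with 34-nt variable regions bearing direct-repeat seeds, single-nucleotide variants, half-site ablations and random human genomic background sequences. Incubation lasted 1 h with ligand-free nuclear receptor dimers in PBS pH 7.4, 2% milk, 0.02% Triton X-100, 1 mM DTT, 0.2 mg/mL BSA and 0.4 mg/ml salmon testes DNA. Antibodies against each partner (one per run) detected bound dimers, and fluorescence scans were regression-normalized. Binding z-scores take the random background probes as reference.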

Binder	binding signal
B6	5.84 PBM z-score against 500 random probes

The binders below were run against VDR:RXRa (Homo sapiens, UniProt P11473;P19793 full;full) in the same assay as above. Conditions: tags: His kept;His cleaved; copies: 1;1; label: surface-attached array probe.
In short: as §1

Binder	binding signal
B5	7.09 PBM z-score against 500 random probes
B6	7.19 PBM z-score against 500 random probes

Each binder was assayed against LXRa:RXRa (Homo sapiens, UniProt Q13133;P19793 full;full) in the same assay as above. Conditions: tags: His kept;His cleaved; copies: 1;1; label: surface-attached array probe.
In short: as §1

Binder	binding signal
B5	7.63 PBM z-score against 500 random probes
B6	7.36 PBM z-score against 500 random probes

These binders were tested against PPARa:RXRa (Homo sapiens, UniProt Q07869;P19793 full;full) in the same assay as above. Conditions: tags: GST kept;His cleaved; copies: 1;1; label: surface-attached array probe.
In short: as §1

Sequence of PPARa:RXRa (Q07869 whole entry, chain 1 of 2): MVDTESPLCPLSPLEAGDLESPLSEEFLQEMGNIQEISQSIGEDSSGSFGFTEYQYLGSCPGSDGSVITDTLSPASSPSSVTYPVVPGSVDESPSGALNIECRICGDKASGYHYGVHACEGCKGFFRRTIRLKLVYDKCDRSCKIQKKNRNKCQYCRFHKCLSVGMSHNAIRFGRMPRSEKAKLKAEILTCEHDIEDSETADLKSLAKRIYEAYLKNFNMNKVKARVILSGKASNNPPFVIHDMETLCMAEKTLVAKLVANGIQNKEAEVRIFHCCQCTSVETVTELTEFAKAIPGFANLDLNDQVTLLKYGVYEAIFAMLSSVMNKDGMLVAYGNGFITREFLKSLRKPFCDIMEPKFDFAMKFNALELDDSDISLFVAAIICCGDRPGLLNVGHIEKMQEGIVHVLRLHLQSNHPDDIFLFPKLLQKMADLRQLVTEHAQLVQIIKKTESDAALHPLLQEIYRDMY
Sequence of PPARa:RXRa (P19793 whole entry, chain 2 of 2): as the sequence (P19793 whole entry) above

Binder	binding signal
B1	6.9 PBM z-score against 500 random probes
B2	6.94 PBM z-score against 500 random probes
B3	7.1 PBM z-score against 500 random probes
B4	6.54 PBM z-score against 500 random probes
B5	6.87 PBM z-score against 500 random probes
B6	7.64 PBM z-score against 500 random probes

The binders below were run against LXRb:RXRa (Homo sapiens, UniProt P55055;P19793 full;full) in the same assay as above. Conditions: tags: His kept;His cleaved; copies: 1;1; label: surface-attached array probe.
In short: as §1

Binder	binding signal
B5	6.75 PBM z-score against 500 random probes
B6	7.75 PBM z-score against 500 random probes

What follows are binders tested against FXR:RXRa (Homo sapiens, UniProt Q96RI1;P19793 full;full) in the same assay as above. Conditions: tags: His kept;His cleaved; copies: 1;1; label: surface-attached array probe.
In short: as §1

Binder	binding signal
B5	8.6 PBM z-score against 500 random probes
B6	9.03 PBM z-score against 500 random probes

The binders below were run against PXR:RXRa (Homo sapiens, UniProt O75469;P19793 full;full) in the same assay as above. Conditions: tags: His kept;His cleaved; copies: 1;1; label: surface-attached array probe.
In short: as §1

Binder	binding signal
B5	6.64 PBM z-score against 500 random probes
B6	7.35 PBM z-score against 500 random probes

These binders were tested against RARa:RXRa (Homo sapiens, UniProt P10276;P19793 full;full) in the same assay as above. Conditions: tags: His kept;His cleaved; copies: 1;1; label: surface-attached array probe.
In short: as §1

Sequence of RARa:RXRa (P10276 whole entry, chain 1 of 2): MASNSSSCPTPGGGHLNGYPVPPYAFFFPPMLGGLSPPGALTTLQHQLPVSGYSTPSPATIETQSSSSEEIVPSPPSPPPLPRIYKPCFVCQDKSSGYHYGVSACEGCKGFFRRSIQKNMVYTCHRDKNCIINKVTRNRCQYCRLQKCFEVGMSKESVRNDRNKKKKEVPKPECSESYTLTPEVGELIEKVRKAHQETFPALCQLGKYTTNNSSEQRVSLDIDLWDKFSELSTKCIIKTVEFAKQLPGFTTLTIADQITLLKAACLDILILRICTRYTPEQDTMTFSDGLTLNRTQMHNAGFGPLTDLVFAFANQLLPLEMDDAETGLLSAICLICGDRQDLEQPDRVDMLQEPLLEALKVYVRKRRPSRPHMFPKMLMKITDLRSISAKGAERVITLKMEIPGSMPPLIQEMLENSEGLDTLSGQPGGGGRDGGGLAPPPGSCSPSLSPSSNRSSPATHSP
Sequence of RARa:RXRa (P19793 whole entry, chain 2 of 2): as the sequence (P19793 whole entry) above

Binder	binding signal
B7	7.75 PBM z-score against 500 random probes
B1	7.84 PBM z-score against 500 random probes
B2	7.77 PBM z-score against 500 random probes
B3	8.25 PBM z-score against 500 random probes
B4	8.37 PBM z-score against 500 random probes
B5	7.2 PBM z-score against 500 random probes
B8	7.26 PBM z-score against 500 random probes
B6	9.11 PBM z-score against 500 random probes
B9	7.08 PBM z-score against 500 random probes

Each binder was assayed against RARg:RXRa (Homo sapiens, UniProt P13631;P19793 full;full) in the same assay as above. Conditions: tags: His kept;His cleaved; copies: 1;1; label: surface-attached array probe.
In short: as §1

Sequence of RARg:RXRa (P13631 whole entry, chain 1 of 2): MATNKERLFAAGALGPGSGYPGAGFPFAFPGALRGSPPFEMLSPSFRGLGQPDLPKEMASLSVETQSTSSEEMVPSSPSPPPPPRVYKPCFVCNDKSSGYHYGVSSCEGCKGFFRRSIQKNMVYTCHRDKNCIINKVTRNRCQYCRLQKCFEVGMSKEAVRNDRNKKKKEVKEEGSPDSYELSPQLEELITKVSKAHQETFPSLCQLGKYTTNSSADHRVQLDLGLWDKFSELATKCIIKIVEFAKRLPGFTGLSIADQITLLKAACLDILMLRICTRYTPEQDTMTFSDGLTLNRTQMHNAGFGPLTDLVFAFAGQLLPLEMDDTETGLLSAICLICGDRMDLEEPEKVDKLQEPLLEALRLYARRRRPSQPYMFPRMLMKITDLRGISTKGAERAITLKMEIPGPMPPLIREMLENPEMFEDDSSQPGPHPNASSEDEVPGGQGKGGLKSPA
Sequence of RARg:RXRa (P19793 whole entry, chain 2 of 2): as the sequence (P19793 whole entry) above

Binder	binding signal
B7	9.04 PBM z-score against 500 random probes
B5	7.44 PBM z-score against 500 random probes
B6	8.66 PBM z-score against 500 random probes
